The supplement of paper PMC12455559
± gives the standard deviation of the averaged measurements.

What was measured:
[1] = PET hydrolysis, aromatic products released after 48 h (umol product/mg enzyme); higher = more PET depolymerization activity
Summary of the method: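 Tagless, SUMO-cleaved candidate enzymes were purified on nickel beads, and 5 μg (50 μL) was added to 3.5 mg amorphous PET film or crystalline PET powder in 450 μL buffer. Buffers were 50 mM NaCitrate (pH 4.5, 5.5), 50 mM NaPhosphate (pH 6.5, 7.5) or glycine (pH 8.5). Sealed plates were incubated 48 h at 40 or 60 °C without shaking. PET hydrolysis activity is the aromatic product in the supernatant, read by absorbance at 260 and 280 nm against buffer blanks and expressed per mg enzyme.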

[2] = melting temperature (DSF); higher = more thermostable
Summary of the method: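 After expression in E. coli C41(DE3), the candidate enzymes were bound to nickel beads and released with SUMO protease. Their melting temperature was found by differential scanning fluorimetry with Sypro Orange on a Bio-Rad CFX96. Each sealed PCR plate well held 45 μL enzyme (0 to 0.3 mg/mL) plus 5 μL 5X dye, and fluorescence was read for 250 cycles from 25 °C at 0.3 °C per cycle (ramp 0.3 °C/s).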

[3] = purified protein yield per well (BCA); higher = higher soluble expression
Summary of the method: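 Purified protein yield per well is reported, as measured by the Pierce Rapid Gold BCA kit. The enzymes came from E. coli C41(DE3) autoinduction cultures of 2 mL with 100 µg/mL kanamycin, held at 37 °C for 2 h and 18 °C for 40 h, then lysed and purified on Ni-charged magnetic beads with SUMO protease release. The detection threshold is 25 ug (0.1 mg/mL), and lower values are under it.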

[4] = substrate: aFilm, 40 °C, pH 4.5
[5] = substrate: aFilm, 40 °C, pH 5.5
[6] = substrate: aFilm, 40 °C, pH 6.5
[7] = substrate: aFilm, 40 °C, pH 7.5
[8] = substrate: aFilm, 60 °C, pH 4.5
[9] = substrate: aFilm, 60 °C, pH 5.5
[10] = substrate: aFilm, 60 °C, pH 6.5
[11] = substrate: aFilm, 60 °C, pH 7.5
[12] = substrate: cryPow, 40 °C, pH 4.5
[13] = substrate: cryPow, 40 °C, pH 5.5
[14] = substrate: cryPow, 40 °C, pH 6.5
[15] = substrate: cryPow, 40 °C, pH 7.5
[16] = substrate: cryPow, 60 °C, pH 4.5
[17] = substrate: cryPow, 60 °C, pH 5.5
[18] = substrate: cryPow, 60 °C, pH 6.5
[19] = substrate: cryPow, 60 °C, pH 7.5

Row | Sequence | PET hydrolysis [1, 4] | PET hydrolysis [1, 5] | PET hydrolysis [1, 6] | PET hydrolysis [1, 7] | PET hydrolysis [1, 8] | PET hydrolysis [1, 9] | PET hydrolysis [1, 10] | PET hydrolysis [1, 11] | PET hydrolysis [1, 12] | PET hydrolysis [1, 13] | PET hydrolysis [1, 14] | PET hydrolysis [1, 15] | PET hydrolysis [1, 16] | PET hydrolysis [1, 17] | PET hydrolysis [1, 18] | PET hydrolysis [1, 19] | melting temperature [2] [C] | purified protein yield per well [3] [µg]
1 | ADNPYQRGPDPTRTSVTAVNGPFANTSVSVPTGHGFNGGRIYYPTDTSQGTFGAIAISPGYTALFSAELAWMGPWLASHGFVVIGIETNSRNDFDTARGTQLLAALDYLTQQSPVRDRVDPSRLAVSGHSMGGGGALSAAMRRASLKAVVGITPYSPSSNLANDRVPTMIISGQADTVVTPSYALGLYNSIPATTESVYLEVAGGDHGFMVGRSNPVLVRTMLPFLKMFIDNDTRYSQFLCPLLDNSGVVTYRSTCPLLPTDPTTPPTGTPTPTPTTPAPTTPPPTTPPGSASEIRGTQSNRCIDVPNASRNNGTRVQLYDCNRQTNQAWTYTANKQLQVYGNMC [ESM106] | < 3 | 1.5 ± 2.1 | 3.5 ± 0.71 | < 3 | < 3 | < 3 | < 3 | < 3 | 9 ± 4.2 | 24 ± 5.7 | 28 ± 2.8 | 19 ± 1.4 | < 3 | 2 ± 2.8 | 4.5 ± 0.71 | < 3 | 62.2 | 392
2 | ADNPYQRGPDPTRTSVTAVNGPFANTSVSVPTGQGFNGGRIYYPTDTSQGTFGAVAISPGYTALFSAELAWMGPWLASHGFVVIGIETNSTNDFDTARGTQLLAALDYLTQRSSVRDRVDPNRLAVSGHSMGGGGALSAAARRSSLKAVVGITPYSPSSNLANVRVPTMVVSGQADTVVTPSYALNLYNSLPSTTESVYLEVAGGDHGFMVGRSNPVLVRTMLPFLKMFVDNDTRYSQFLCPLMDNSGVVTYRSTCPLLPTPTTPPPTTGPTTPPPTTPPTTTPPPSGSTGQIVGTQSNRCIDVPNSSRNNGTRVQLYDCHGQANQTWTYDSSTKQLRVYGDMCLDASGSGNGAAVQIYSCHNQTNQQWNINSNGTISGVQSNRCLDAWSTNNGAQIQLYDCHGQTNQQFRIRA [TEP168] | < 3 | < 3 | < 3 | < 3 | < 3 | < 3 | < 3 | < 3 | 4 | 9 | 9 ± 1.4 | 4.5 ± 0.71 | < 3 | < 3 | < 3 | < 3 | 65.2 | 213
3 | ADNPYQRGPDPTRTSVTAVNGPFANTSVSVPTGYGFNGGRIYYPTDTSQGTFGAIAISPGYTALFSAELAWMGPWLASHGFVVIGIETNSRNDFDTARGTQLLAALDYLTQQSPVRDRVDPNRLAVAGHSMGGGGALSAAIRRPSLKAVVGIAPYSPSSNLANDRVPTMIFSGQADTVVTPSYATGLYNSLPATTESVYLEVAGADHGFMVGRSNPVMVRTMLPFVKMFIDDDARYSQFLCPLLDNSGVVTYRSTCPLLPTTPTTPPTGTPTPTPTPTQTTPPPGSASQIVGTQSGRCVDVPNASTTNGTRVQLYDCNRQTNQAWTYTSTKQLQVYGTMCLDAAGTGNGAAVQIYSCHSQTNQQWNVNSNGTISSVQSGRCLDAWSTANGAQIQLYDCHGQTNQQFRLAALA [ESM095] | – | – | – | – | – | – | – | – | 11 | 21 | 22 | 10 | < 3 | < 3 | < 3 | < 3 | 63.7 | 147
4 | ADNPYQRGPDPTRTSVTAVNGPFANTSVSVPTGYGFNGGRIYYPTDTSQGTFGAIAISPGYTALFSAELAWMGPWLASHGFVVIGIETNSRNDFDTARGTQLLAALDYLTQQSPVRDRVDPNRLAVAGHSMGGGGALSAATRRPSLKAVVGIAPYSPSSNLANDRVPTMIFAGQADTVVTPSYATGLYNSLPATTESVYVEVAGADHGFMVGRSNPVMVRTMLPFVKMFIDNDTRYSQFLCPLLDSSGVVTYRSTCPLLPSTPTPTDPPTPTDPPTVPPGSANEIVGTQSGRCVDVPNASRTNGTRVQLYGCNKQTNQAWTYTSSKQLQVYGNMCLDAAGTGNGAAVQIYSCHNQTNQQWNVNSNGTISNVQSGRCLDAWSTANGAQIQLYDCHGQTNQQFRLAALAG [ESM069] | < 3 | 4 | < 3 | < 3 | < 3 | < 3 | < 3 | < 3 | 10.5 ± 2.1 | 29 ± 2.8 | 42 | 17 ± 1.4 | < 3 | 4.5 ± 0.71 | 4 | < 3 | 63.4 | 213
